Results published in patent US20200166530A1 (CASE WESTERN RESERVE UNIVERSITY, published 2020).
Ends that are not written are not given here.

Biological target: T1, hERα^CDE, multidomain segment of human estrogen receptor alpha containing both DBD and LBD (residues … (human, UniProt P03372 181-552))
T1 construct: Expressed in E. coli from the pMCSG7 vector; It functions as a homodimer; In the SPR assay it was injected as the complex with ERE-DNA and estradiol; also called hERα^CDE-DNA-E2 complex
T1 sequence: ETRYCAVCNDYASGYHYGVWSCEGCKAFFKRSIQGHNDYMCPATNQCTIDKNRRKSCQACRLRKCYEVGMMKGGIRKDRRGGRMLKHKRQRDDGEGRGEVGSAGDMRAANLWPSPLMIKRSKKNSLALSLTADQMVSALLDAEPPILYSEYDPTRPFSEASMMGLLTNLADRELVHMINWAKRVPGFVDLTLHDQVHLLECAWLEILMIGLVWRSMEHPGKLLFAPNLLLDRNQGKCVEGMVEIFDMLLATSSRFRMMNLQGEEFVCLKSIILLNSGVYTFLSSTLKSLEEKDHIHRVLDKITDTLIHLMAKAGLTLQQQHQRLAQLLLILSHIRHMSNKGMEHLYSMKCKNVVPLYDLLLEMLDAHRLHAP
Assay: SPR (Biacore T100): biotinylated TIF2 peptide immobilised on an SA chip, hERα^CDE-DNA-E2 complex injected at 0-5 µM, 25° C [panel e]
Description: Measurements were conducted at 25° C. using a Biacore T100 system.

binding result: binds
B1: coactivator TIF2 peptide (KENALLRYLLDKDD) (peptide)
peptide: KENALLRYLLDKDD
modifications: also: biotinylated (position not given here)
notes: For SPR the peptide was biotinylated and captured on an SA sensor chip at 10 RUs; also called biotinylated TIF2 peptide
